Columns and labels:
[1] = biological target: TAX1BP1 zinc finger domain (human) (UniProt Q86VP1); test: NMR titration; 1H/15N HSQC of 15N-labelled TAX1BP1 zinc fingers (P0 150 μM) with increasing unlabelled ubiquitin, and the reciprocal titration of 15N-labelled ubiquitin; PBS, 10 mM β-mercaptoethanol, 20°C; shift changes of peaks of each zinc finger fitted to a single site-binding model
LC3B (two-hybrid bait) = LC3B (two-hybrid bait) (UniProt Q9GZQ8); test: mammalian 2-hybrid assay; conditions: CHOK.1 cells, LC3B as bait, read off a plot
LC3C (two-hybrid bait) = LC3C (two-hybrid bait) (UniProt Q9BXW4); test: mammalian 2-hybrid assay; conditions: CHOK.1 cells; LC3C as bait; parent: est. 79; read off a plot
UniProt Q9BXW4, sequence (Q9BXW4 whole entry): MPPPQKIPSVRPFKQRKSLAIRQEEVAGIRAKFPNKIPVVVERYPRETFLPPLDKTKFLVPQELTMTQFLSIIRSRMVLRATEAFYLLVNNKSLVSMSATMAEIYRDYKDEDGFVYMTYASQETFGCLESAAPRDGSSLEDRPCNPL

Row | KD, site ZF1 (N-terminal module) [1] [µM] | KD, site ZF2 (C-terminal module) [1] [µM] | response (LC3B (two-hybrid bait); parent: est. 85) | response (LC3B (two-hybrid bait); parent: est. 98) | response (LC3C (two-hybrid bait)) | Substance
1 | 70 | 7 |  |  |  | mono-ubiquitin (from UniProt P0CG48 1-76) (natural protein)
2 |  |  | 20 | 27 | 34 | TAX1BP1 full-length wild-type (two-hybrid prey) (from UniProt Q86VP1) V144S
